Measurements as given in the DeepSol protein solubility set.

Experiment: soluble on expression in E. coli; label from the status in PepcDB or PDB records

Sequence	soluble on expression in E. coli
MKRVAAVIEYDGSNFFGYQGQPDVRTVQGVIEDALERIFKQRIYTQAAGRTDTGVHANGQLIAFNCPNDRMTTEDIRNAMNANLPDDVYVKEVFEVPVNFHPRFDVTKRIYHYFILTSRQKNVFLRKYVWWFPYELDLDAMRKAVKYLEGTHDFTSFKTGSDERDPVRTIYRIRILRLKNDLVLIRVEGRSFLRRMVRNIVAALVKVGLKQWEPEKMKEVLEARDRSAAAGTAPAHGLYFYKVLF	soluble
MKRVLIFADIFPPAFAPRAAYLTKYLPRFGWEPFVITEKMPTPASQSHGDVFGGFCSDIPVTAIDLSSASFLSQAIRSARLFGELFWEQKEERFYKEAAKAFPSVKFDAVLCLTYRKFPLATACRYAQAHRLPWVADCRDVIEQYSNYDFLPRGKRLPSLLMKWLRHRYISLRNHYLHKADRVVSVSPWHCNLLAEVNPRTELIYNGYDPELFSRGSLPCGKFILSYTGRLLTPEMHDPTLLFEALASEALQEVRKERRIELHWYVDEYSRSILQPFIRQYALKDMCRFFPMVPAVQVPEILRHSSVLLQLGNTEKPGGPHGIVSTKLFESLAMEKPILMVRSDEAIVADIISEAEAGLAAQTTEEVATFLSDQYTRWKAEGDTSLRNPNRNFISTFSREEEAKQYARLLESIVAN	not soluble
MKRYTPDFPEMMRLCEMNFSQLRRLLPRNDAPGETVSYQVANAQYRLTIVESTRYTTLVTIEQTAPAISYWSLPSMTVRLYHDAMVAEVCSSQQIFRFKARYDYPNKKLHQRDEKHQINQFLADWLRYCLAHGAMAIPVYLEHHHHHH	soluble
MKSACSIITASIVLYKSKPDIIRDVITSFFSDTVTKKKLILIDNSPTDSLRVLQEERPEDIQYFFNNRNIGFGSAHNIGIREAARFNPSYHLILNPDVQFGPEVVPTLASYMDENPDIGLLMPQVYYPNGELQHLCKLFPRPWDVMLRRFVPYRSYRERNNERFELRNWSYDTIQDIPSLSGCFMFARMDILREVGGFDERFFMYAEDLDLCRRIGQVSRTVFFPKVSIMHTYAKGSYHDAKLLRHHIVSLIRYFNKWGWLFDAERRRVNRACLAVLRNQTTVKKD	not soluble
MKSCRSCKENPEVQRKRAEKPWRRAPKAKSEVEKHGIGPPDSDSGEEISFPWYNVTGKMLVVGMHVEIKRSDGRIHGAVIAEVKSNGRFMVEWYEKGETKGKESSLEELLTLNPSLQAPKPTPPPQPPQKTLQASTAVNRQNGIHAQSMILDDEDTFLLDHINMIPAKGASANKRPTGAFTQHVPVRMAPPSEKPLPTRRAPSPKEDAAPAPKSTRTTAAFKPDLDSTAITVPKHTARRTVVVAPAPAPVPAPPIANMTSQRAPSPVARVPSPKNVPRSYPQQDVQPSNGNFAFAEMIRNYRAQIDYRPLSMFDGVNENRISVCVRKRPLNKKELTKAEVDVITIPSRDITILHQPQTRVDLTKYLDNQKFRFDYSFDEYANNELVYRFTAAPLVKTVFDNGTATCFAYGQTGSGKTHTMGGDFSGKKQNASMGIYALTARDVFRMLEQPQYRRKDLSVHCAFFEIYGTKTYDLLNDKAELRVLEDKMQKVQVVGLKEEQAHNEQDVLELINKGTLVRTAGTTSANANSSRSHAIFQIILRQGKKVWGKFSLIDLAGNERGQDTRECDRDTRKEGANINTSLLALKECIRGMARNSSHVPFRQSKLTMVLRDSFIGEKSRTVMISMISPGISSSDHTLNTLRYADRVKEMGTDGSGEATPIRDEELFLPPSADKSDEEYDEMVEKQEHRRVAVDHVRNLKDMSEKIIRETTIVLSNEPSAAQKAECLAKLDQLAQIVSNTRVAVENV	soluble
MKSEKETIYDYAAELKLLSFKEELECTLSLAAEENWNHLQFLTELLGKESARRRECRRRSRIRSAGFPQMKYLHELVMEDMPKEAQVILPELETLDFIRQGRNLVLYGNPGTGKTHIATALGIKACQQDFTVLFTSVPVLLTQIREAKSAKTLRTLQLRFEKYDLVICDEFGYVSCDKEGGELLFNHLSLRAGKKATIITTNLAFNRWNEIIKDKVLVAAMVDRLTHKAYLVNMTGLSYRLKETQKMRQDKLEHHHHHH	not soluble
MKSHDLKKALCQWTAMLALVVSGAVWAANGVDFSQSPEVSGTQEGAIRMPKEQDRMPLNYVNQPPMIPHSVEGYQVTTNTNRCLQCHGVESYRTTGAPRISPTHFMDSDGKVGAEVAPRRYFCLQCHVPQADTAPIVGNTFTPSKGYGK	soluble
MKTFIKGLVLSAVVASSQVYAEQTLNVYAWGGYLPEKSLKAFEQQEGVTINYSTFENNESMYTKLKLLKGTGYDVVFASAYFIEKMGREGLLAEIDHNQIPNMKDAMPTVLGLAHDPQNKFSLPYIWGITGLYYNSSTLPNGITKWADLWDKQYEQQVMLIDDIRDVFGMALKLNGFSINTKNEEEIKKAYESLVALKKNVLLYNSDAPHVPYVSGEATLGMQWNGNAYQGQVEMPELKFVMPEEGAVLWMDNFTIPSGSKNIPLAHKFINFMYQPENQAEIVQSLGYASATKGGRALLPAELRDNPTIFPSDEDMKKGEFINDVGPETLAIYEKYWQRLRNQ	not soluble
MKTFPVSIVTPDGPVYEKEVEMVSVKAESGEMGILPGHIPTVAPLKISAVRLKNGGHTDYVAVSGGFIEVRPDKVTVLSSSAEEANHIDIHRANEAKRRAEQRMQDKQAHVDFKRAEMALQRAVNRLNVSDMK	not soluble
MKTIDCRNMACPAPVVTTKRALEEAGGETVRVLVDAGAPRENVARFAANRGFRVAVEEADGGFAITIGSGEGAPSAPAENPARQGRTVMLITSDRLGDGPEDLGRLLMKSFIITLLDQESLPDRMMFLNSGVLLTTEGSEVLQALEQLGNRGVEVLSCGVCLDFFHCKEKLAAGTVTNMFTTAEALLTAGSVIRLLEHHHHHH	soluble
MKTIEIFDPAMCCPTGLCGTNINPELMRIAVVIETLKRQGVVVTRHNLRDEPQVYVSNKTVNQYLQKNGAEALPITLVDGEIAVSKDYPTTKQMSEWTGINLD	soluble
MKTIGLLGGMSWESTIPYYRLINEGVKARLGGLHSASLVLHSVDFHDIEACQSAGDWDRAGEILAEAAVGLQQAGAEGIVLCTNTMHKVADAIAARCQVPFLHIADATGRAIAAKGQRRVALLGTRYTMEQTFYRGRLQEQFAIETLIPEADDRAQINQIIFDELCLGTFSEASRDYYLQTIAALAEQGAEGVIFGCTEIGLLVPAELSPLPVFDTAAIHAEDAVNFMLSAGPTPAA	not soluble
MKTIHIRELADWLDGALQAARFKDYCPNGLQVEGKAEIAHIITGVTASEALLRAAIERGADAVLVHHGWFWRNEDRRVLGPRRTRLALALGHELNLLAYHLPLDAHPQWGNNAQLARVLGLQAETGPDGAPRTCGADNLVWLGSAPGVQTVAQLQQRVAERLGRTPLVVGEPDRPVRRVAWCTGGAQGMLADAVDAGADAYITGEASESTVHLARETGVAFVGAGHHATERYGVQALGEAVARQFGIRVEFIDIDNPVLEHHHHHH	not soluble
MKTITLYLDPASLPALNQLMDFTQNNEDKTHPRIFGLSRFKIPDNIITQYQNIHFVELKDNRPTEALFTILDQYPGNIELNIHLNIAHSVQLIRPILAYRFKHLDRVSIQQLNLYDDGSMEYVDLEKEENKDISAEIKQAEKQLSHYLLTGKIKFDNPTIARYVWQSAFPVKYHFLSTDYFEKAEFLQPLKEYLAENYQKMDWTAYQQLTPEQQAFYLTLVGFNDEVKQSLEVQQAKFIFTGTTTWEGNTEVREYYAQQQLNLLNHFTQAEGDLFIGDHYKIYFKGHPRGGEINDIILNNAKNITNIPANISFEVLMMTGLLPDKVGGVASSLYFSLPKEKISHIIFTSNKQVKSKEDALNNPYVKVMRRLGIIDESQVIFWDSLKELGGG	soluble
MKTLFAFFILIFSNIVYAAPKAELWAYWQASNDSNTASVSHQAWQSILDRNLVQVGENALFRYAEVTKEDKTLLNDYLDQLSKLDPREFNRQEQYAYWVNLYNALTVKLILDNYPVASITKLGGLFSFGPWDEKVFTVAGQTLTLNDIEHRILRPIWKDPRTHYAVNCASLGCPNLQSQAFTAQNTERLLSNAAHTFINSSKGATLNNDTLILSSIYDWFAVDFGNKKELLIHLAQYRPELSLYSGKIDYQYDWKLNDTKEKKLEHHHHHH	soluble
MKTLLQTTLKLLVASSLVLGMTASTLMAETKSKFQVAWTIYVGWMPWDYAAQSGILDKWAKKYGIEIEMVQVNDYVESINQYTAGKFDGCVMTNMDALTIPAAGGVNSTALIAGDFSNGNDGIILKGKKRLSEIKGQKVNLMELSVSHYLLARGLESVGLSERDVSVVNTSDADIVAAYSTKEVSALVTWNPQLSEVKSMKGANLVFDSSQIPGEIIDLMVLNTQTLKENPNLGKALTGAWFEVLALMKKGDLTALSAMAKASGTDLAGYKKQLESTKMFYEASEAVKFITSAELPETMKKVSEFSFEHGILGEGASSAAFVGMEFPGGKSFGDPKNLKLRFIDTYVKMAAEGKL	not soluble
MKTLPVLPGQAASSRPSPVEIWQILLSRLLDQHYGLTLNDTPFADERVIEQHIEAGISLCDAVNFLVEKYALVRTDQPGFSACTRSQLINSIDILRARRATGLMTRDNYRTVNNITLGKYPEAK	soluble
MKTLYDKLWSDHVVHAESDDPNGMVILYIDRHLVHEVTSPQAFESLKLAGRKPWRTGSILAVADHNVPTTDRSSGISDPVSRLQVETLDQNCEEFAITEFRMNDERQGIVHVIGPEQGATLPGMTVVCGDSHTSTHGAFACLAFGIGTSEVEHVLATQCLVARKSKTMLVRVEGDLPPGVTAKDIALAVIGEIGTAGGTGYAIEFAGSAIRSLSMEGRMTLCNMAIEAGARAGMVGADEVTIDYIKGRPFAPQGALWDQAVAYWRTLKSDEDAVFDRMVELKAVNIKPQVTWGTSPEMVTTVDGYVPDPADISDPTKRHDVEHALGYMGLKPKMPIQEITLDKVFIGSCTNSRIEDLRAAAEIVKGKRIAPNIRLAMVVPGSGLVKSMAEKEGLDKIFLSAGFEWREPGCSMCLAMNDDRLLPGERCASTSNRNFEGRQGPGGRTHLVSPAMAAAAAIAGHFVDVRSFIR	not soluble
MKTRITELLKIDYPIFQGGMAWVADGDLAGAVSKAGGLGIIGGGNAPKEVVKANIDKIKSLTDKPFGVNIMLLSPFVEDIVDLVIEEGVKVVTTGAGNPSKYMERFHEAGIIVIPVVPSVALAKRMEKIGADAVIAEGMEAGGHIGKLTTMTLVRQVATAISIPVIAAGGIADGEGAAAGFMLGAEAVQVGTRFVVAKESNAHPNYKEKILKARDIDTTISAQHFGHAVRAIKNQLTRDFELAEKDAFKQEDPDLEIFEQMGAGALAKAVVHGDVDGGSVMAGQIAGLVSKEETAEEILKDLYYGAAKKIQEEASRWTGVVRND	not soluble
MKTSANIATSASGNGLADVLERVLDKGVVIAGDISVSIASTELLNIKIRLLISSVERAKEIGINWWESDPYFSSQNNSLVQANEKLLERVASLESEIKALRSN	not soluble
MKTTYNRWWKKKVWFGRKDMSYKVIVDSCGEFTPEMKADGGFEHVALGIQIEDTQWTDDDSLKQEELLLKIAESTSCAKTSCPSPERYMESYHCDAERIYVVTLSAELSGSYNSAVLGKNLYEEEYGEKQIHVFNSRSASVGETLIALKVQQCEKAGMTFEEVVESVECYIEEQHTYFVLENLDTLRKNGRLTGIKSLVAGALNIKPIMGSTPQGTICQKEKARGMKKALVKMADCVAADVVNAGDKILAIAHCNCEERAKEVQRLLKERFAVKSSFIVDTSGISTVYANDGGIIVVV	soluble
MKVAGVDEAGRGPVIGPLVIGVAVIDEKNIERLRDIGVKDSKQLTPGQREKLFSKLIDILDDYYVLLVTPKEIDERHHSMNELEAEKFVVALNSLRIKPQKIYVDSADVDPKRFASLIKAGLKYEATVIAEHKADAKYEIVSAASIIAKVTRDREIEKLKQKYGEFGSGYPSDPRTKEWLEEYYKQYGDFPPIVRRTWETARKIEERFRKNQLTLDKFLK	soluble
